The target of this assay is VEGF165 (UniProt P15692). The experiment in a line: ELISA, plate coated with VEGF, anti-human Fc-HRP detection.

Consider one substance from patent US20190375821A1.

Sequence of VEGF165 (P15692 other isoform, or with tags, fused parts or gaps limits assumed): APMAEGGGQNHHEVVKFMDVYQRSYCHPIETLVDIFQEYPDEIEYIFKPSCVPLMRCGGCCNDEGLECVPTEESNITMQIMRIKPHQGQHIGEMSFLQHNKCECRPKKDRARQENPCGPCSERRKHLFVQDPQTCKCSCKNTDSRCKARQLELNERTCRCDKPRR

On to VEGF-trap (aflibercept) (Fc fusion), for which the dissociation constant (Kd) – broadly, a measure of binding affinity in units of concentration – came to 0.5 pM.
